From patent publication US20260166168A1 (MEDILINK THERAPEUTICS SUZHOU, published 2026)

Key:
[1] = biological target: canine canis DLL3-ECD-his antigen protein (canine); experiment: ELISA, coated Canis DLL3-his 0.2 µg/mL, antibody titrated
[2] = biological target: T1, recombinant extracellular domain protein of mouse DLL3 (Mouse DLL3-His) (mouse, UniProt O88516 33-490); experiment: ELISA, coated Mouse DLL3-His 0.2 µg/mL, antibody titrated
T1 construct: extracellular domain; Commercial protein; also called mDLL3; not shown: His tag
T1 sequence (looked up): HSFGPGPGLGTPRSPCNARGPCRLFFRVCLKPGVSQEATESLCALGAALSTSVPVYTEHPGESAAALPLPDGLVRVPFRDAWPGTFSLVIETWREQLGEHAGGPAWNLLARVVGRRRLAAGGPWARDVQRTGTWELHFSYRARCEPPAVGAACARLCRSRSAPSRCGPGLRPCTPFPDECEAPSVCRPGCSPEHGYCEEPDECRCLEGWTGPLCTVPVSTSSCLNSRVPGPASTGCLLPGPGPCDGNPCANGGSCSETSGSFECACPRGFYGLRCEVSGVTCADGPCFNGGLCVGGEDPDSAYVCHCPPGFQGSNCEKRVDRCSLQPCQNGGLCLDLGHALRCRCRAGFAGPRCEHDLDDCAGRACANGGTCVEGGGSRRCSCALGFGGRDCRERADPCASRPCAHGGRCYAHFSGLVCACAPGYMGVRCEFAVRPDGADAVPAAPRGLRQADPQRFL

[3] = biological target: T2, recombinant extracellular domain protein of human DLL3 (h.DLL3-ECD-His) (human, UniProt Q9NYJ7 27-492); experiment: ELISA, coated h.DLL3-ECD-his 0.2 µg/mL, antibody titrated
T2 construct: extracellular domain; Commercial protein; also called human DLL3 antigen; not shown: His tag
T2 sequence (looked up): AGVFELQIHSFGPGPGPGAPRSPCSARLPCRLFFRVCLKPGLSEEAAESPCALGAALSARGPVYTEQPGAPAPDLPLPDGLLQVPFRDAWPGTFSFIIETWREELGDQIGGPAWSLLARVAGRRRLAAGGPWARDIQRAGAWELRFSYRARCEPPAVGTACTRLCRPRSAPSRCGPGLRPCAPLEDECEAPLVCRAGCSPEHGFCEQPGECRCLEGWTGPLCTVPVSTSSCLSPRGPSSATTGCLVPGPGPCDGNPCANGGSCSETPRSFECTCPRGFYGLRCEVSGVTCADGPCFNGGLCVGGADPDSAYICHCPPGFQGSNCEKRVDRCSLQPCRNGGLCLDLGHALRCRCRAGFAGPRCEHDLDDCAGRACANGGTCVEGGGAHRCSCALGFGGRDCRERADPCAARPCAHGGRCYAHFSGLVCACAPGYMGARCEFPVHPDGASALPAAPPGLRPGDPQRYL

[4] = biological target: T3, recombinant extracellular domain protein of cynomolgus monkey DLL3 (cyno.DLL3-ECD-His) (cynomolgus monkey, UniProt A0A2K5WSR1 27-490); experiment: ELISA, coated cyno.DLL3-ECD-his 0.2 µg/mL, antibody titrated
T3 construct: extracellular domain; Commercial protein; not shown: His tag
T3 sequence: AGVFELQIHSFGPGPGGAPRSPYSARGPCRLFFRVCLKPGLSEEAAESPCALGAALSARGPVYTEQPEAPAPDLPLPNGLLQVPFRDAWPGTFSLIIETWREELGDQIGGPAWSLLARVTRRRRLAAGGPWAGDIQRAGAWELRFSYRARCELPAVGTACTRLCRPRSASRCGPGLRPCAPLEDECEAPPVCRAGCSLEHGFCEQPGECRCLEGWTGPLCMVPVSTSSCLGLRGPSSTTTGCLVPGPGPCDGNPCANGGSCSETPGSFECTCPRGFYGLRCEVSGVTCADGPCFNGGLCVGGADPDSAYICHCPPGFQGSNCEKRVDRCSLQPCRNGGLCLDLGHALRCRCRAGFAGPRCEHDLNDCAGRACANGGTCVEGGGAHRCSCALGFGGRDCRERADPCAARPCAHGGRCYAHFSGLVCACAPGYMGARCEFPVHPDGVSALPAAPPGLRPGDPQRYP

[5] = biological target: T4, recombinant extracellular domain protein of rat DLL3 (Rat DLL3-His) (rat, UniProt O88671 33-494); experiment: ELISA, coated Rat DLL3-his 0.2 µg/mL, antibody titrated
T4 construct: extracellular domain; Commercial protein; not shown: His tag
T4 sequence (looked up): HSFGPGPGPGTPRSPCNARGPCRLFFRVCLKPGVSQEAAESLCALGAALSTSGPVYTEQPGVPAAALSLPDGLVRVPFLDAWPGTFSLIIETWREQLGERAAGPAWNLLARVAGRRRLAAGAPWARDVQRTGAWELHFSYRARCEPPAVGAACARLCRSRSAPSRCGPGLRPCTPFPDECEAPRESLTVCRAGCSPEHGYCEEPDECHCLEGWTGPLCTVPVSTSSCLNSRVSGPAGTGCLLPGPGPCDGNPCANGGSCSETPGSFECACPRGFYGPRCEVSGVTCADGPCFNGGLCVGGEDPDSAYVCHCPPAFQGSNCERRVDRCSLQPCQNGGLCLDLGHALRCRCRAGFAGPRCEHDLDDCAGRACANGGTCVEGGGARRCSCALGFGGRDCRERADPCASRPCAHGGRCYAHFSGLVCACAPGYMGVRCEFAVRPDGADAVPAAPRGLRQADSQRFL

EC50 [1]: 12.9 ng/mL
EC50 [2]: 21.3 ng/mL
EC50 [3]: 4.95 ng/mL
EC50 [4]: 4.98 ng/mL
EC50 [5]: 3.67 ng/mL
B1: 55C11E4-Hz2 (antibody, human IgG1, kappa, V domains shown)
VH: EVQLVQSGAEVKKPGASVKVSCKASGYTFTDYYMNWVRQAPGQRLEWMGVINPYNGGTNYAQKFQGRVTLTVDKSASTAYMELSSLRSEDTAVYYCARDSNYVGLLDYWGQGTLVTVSS
VL: DIVLTQSPATLSLSPGERATLSCRASQSISNNLHWYQQKPGQAPRLLIKYASQSISGIPARFSGSGSGPDFTLTISSLEPEDFAVYFCQQSNSWPYTFGQGTKVEIKR
notes: Optimized humanized IgG1/kappa; also called 55C11E4-Hz2-biotin
